Results reported in the supplement of paper PMC7125110.
± gives the standard error. For some of these results: Fewer inactive variants are shown than the library holds.

B1: glmS ribozyme (parent)
chain: AUAAAAGCGCCAGAACUACAGAAAUGUAGUUGACGAGGAGGAGGUUUAUCGAAUUUUCGGCGGAUGCCUCCAAA

Key:
Details in all cases: with glucosamine-6-phosphate
glucosamine-6-phosphate [1] = variants of: B1; assay: kcat; higher = faster cleavage; RNA array
In short: (§1)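 Barcoded ribozyme variants were transcribed in situ on sequenced MiSeq chips by E. coli RNA polymerase. At 37 °C, a hybridised Cy3 probe tracked them while glucosamine-6-phosphate (40 μM to 10 mM) in HEPES/KCl/Mg(OAc)2 buffer flowed in and tiles were imaged over ~14 h. Per-tile medians of signals normalised to baseline and to non-cleaving reference variants were fit to one- or two-exponential decays, giving kobs. kcat and KM came from weighted Michaelis–Menten fits across concentrations.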

glucosamine-6-phosphate [2] = variants of: B1; assay: self-cleavage kobs at 160 uM GlcN6P; higher = faster cleavage; RNA array
In short: as §1

glucosamine-6-phosphate [3] = variants of: B1; assay: self-cleavage kobs at 640 uM GlcN6P; higher = faster cleavage; RNA array
In short: as §1

glucosamine-6-phosphate [4] = variants of: B1; assay: self-cleavage kobs at 2500 uM GlcN6P; higher = faster cleavage; RNA array
In short: as §1

glucosamine-6-phosphate [5] = variants of: B1; assay: self-cleavage kobs at 10000 uM GlcN6P; higher = faster cleavage; RNA array
In short: as §1

glucosamine-6-phosphate [6] = variants of: B1; assay: KM; higher = weaker cofactor use; RNA array
In short: as §1

glucosamine-6-phosphate [7] = variants of: B1; assay: self-cleavage kobs at 40 uM GlcN6P; higher = faster cleavage; RNA array
In short: as §1

Variant | kcat (glucosamine-6-phosphate [1]) | self-cleavage kobs at 160 uM GlcN6P (glucosamine-6-phosphate [2]) | self-cleavage kobs at 640 uM GlcN6P (glucosamine-6-phosphate [3]) | self-cleavage kobs at 2500 uM GlcN6P (glucosamine-6-phosphate [4]) | self-cleavage kobs at 10000 uM GlcN6P (glucosamine-6-phosphate [5]) | KM (glucosamine-6-phosphate [6]) | self-cleavage kobs at 40 uM GlcN6P (glucosamine-6-phosphate [7])
A12U A15U A39C | 0.000282 ± 8.6e-05 s⁻¹ | 6.33e-05 ± 1.3e-05 s⁻¹ | 9.89e-05 ± 1.6e-05 s⁻¹ | 0.000199 ± 3.2e-05 s⁻¹ | 0.000374 ± 8.8e-05 s⁻¹ | – | –
A6U C67U | 8.67e-05 ± 4.7e-06 s⁻¹ | – | 4.42e-05 ± 8.6e-06 s⁻¹ | 8.14e-05 ± 1.1e-05 s⁻¹ | 8.01e-05 ± 6.2e-06 s⁻¹ | 565 ± 160 µM | –
A48C U56G | 0.000214 ± 2.7e-05 s⁻¹ | – | – | 6.9e-05 ± 1.3e-05 s⁻¹ | 0.000135 ± 2.8e-05 s⁻¹ | 5570 ± 1300 µM | –
A39G C67U | 0.00597 ± 0.0013 s⁻¹ | 0.000762 ± 0.00016 s⁻¹ | 0.00216 ± 0.00033 s⁻¹ | 0.00338 ± 0.0007 s⁻¹ | 0.00666 ± 0.00089 s⁻¹ | 979 ± 370 µM | 0.00033 ± 5.8e-05 s⁻¹
U46C A52G | 0.000634 ± 0.00015 s⁻¹ | – | 7.1e-05 ± 1.4e-05 s⁻¹ | 0.000161 ± 3.6e-05 s⁻¹ | 0.000412 ± 7e-05 s⁻¹ | 5990 ± 2100 µM | –
G60A U69G | 1.18e-05 ± 5e-06 s⁻¹ | – | – | – | – | – | –
A36U A64G C70U | 6.13e-05 ± 1.3e-05 s⁻¹ | – | – | 7.29e-05 ± 2.6e-05 s⁻¹ | 5.17e-05 ± 1.8e-05 s⁻¹ | – | –
U57A A64U | < 1e-05 s⁻¹ | – | – | – | < 1e-05 s⁻¹ | – | < 1e-05 s⁻¹
U57A C58A | 4.9e-05 ± 5.6e-06 s⁻¹ | – | – | 4.44e-05 ± 1.1e-05 s⁻¹ | 4.41e-05 ± 9.8e-06 s⁻¹ | – | –
A15G U30A | 0.018 ± 0.005 s⁻¹ | 0.00255 ± 0.00036 s⁻¹ | 0.00983 ± 0.0012 s⁻¹ | 0.0165 ± 0.0028 s⁻¹ | 0.0115 ± 0.003 s⁻¹ | 923 ± 360 µM | 0.000649 ± 0.00011 s⁻¹
A39C C67A | 0.00061 ± 0.00015 s⁻¹ | 5.89e-05 ± 7.1e-06 s⁻¹ | 0.000144 ± 1.2e-05 s⁻¹ | 0.000714 ± 0.00014 s⁻¹ | 0.000522 ± 5e-05 s⁻¹ | 1790 ± 670 µM | 2.37e-05 ± 5.8e-06 s⁻¹
U46G U56G | 0.00393 ± 0.00066 s⁻¹ | 0.000353 ± 0.00012 s⁻¹ | 0.00128 ± 0.00033 s⁻¹ | 0.00271 ± 0.00083 s⁻¹ | 0.0029 ± 0.001 s⁻¹ | 1690 ± 350 µM | 8.55e-05 ± 1.5e-05 s⁻¹
G13C G32U | 0.000576 ± 4.2e-05 s⁻¹ | – | 8.34e-05 ± 4.1e-05 s⁻¹ | 0.000258 ± 5.7e-05 s⁻¹ | 0.000436 ± 7.7e-05 s⁻¹ | 3170 ± 470 µM | –
A6G A33G | < 1e-05 s⁻¹ | – | – | – | < 1e-05 s⁻¹ | – | –
U45G G66U | 0.0036 ± 0.00029 s⁻¹ | 0.00012 ± 2.8e-05 s⁻¹ | 0.00042 ± 7.6e-05 s⁻¹ | 0.0014 ± 0.00027 s⁻¹ | 0.00245 ± 0.00032 s⁻¹ | 4540 ± 530 µM | 3.62e-05 ± 1.2e-05 s⁻¹
G32U A39U C67G | 0.000203 ± 2.3e-05 s⁻¹ | – | – | 7.96e-05 ± 1.7e-05 s⁻¹ | 0.00014 ± 2e-05 s⁻¹ | 4340 ± 1100 µM | < 1e-05 s⁻¹
G29U G40C | 0.000254 ± 6.3e-05 s⁻¹ | – | 0.000105 ± 2.4e-05 s⁻¹ | 0.000138 ± 3.6e-05 s⁻¹ | 0.000281 ± 5.2e-05 s⁻¹ | – | –
G63A C71G | 2.96e-05 ± 9.4e-06 s⁻¹ | – | – | – | – | – | < 1e-05 s⁻¹

Variant | kcat (glucosamine-6-phosphate [1]) | self-cleavage kobs at 160 uM GlcN6P (glucosamine-6-phosphate [2]) | self-cleavage kobs at 640 uM GlcN6P (glucosamine-6-phosphate [3]) | self-cleavage kobs at 2500 uM GlcN6P (glucosamine-6-phosphate [4]) | self-cleavage kobs at 10000 uM GlcN6P (glucosamine-6-phosphate [5]) | KM (glucosamine-6-phosphate [6]) | self-cleavage kobs at 40 uM GlcN6P (glucosamine-6-phosphate [7])
C50A U69G | 5.56e-05 ± 1.8e-05 s⁻¹ | 6.06e-05 ± 1.3e-05 s⁻¹ | 7.86e-05 ± 1.3e-05 s⁻¹ | 7.89e-05 ± 1.3e-05 s⁻¹ | – | – | 2.65e-05 ± 1.3e-05 s⁻¹
A39U G43A | 0.000177 ± 1.5e-05 s⁻¹ | – | 5.75e-05 ± 8.5e-06 s⁻¹ | 0.000139 ± 1.6e-05 s⁻¹ | 0.000152 ± 1.4e-05 s⁻¹ | 1170 ± 280 µM | –
A14C U31A A64C | 1.75e-05 ± 3.8e-06 s⁻¹ | < 1e-05 s⁻¹ | – | – | – | – | –
A39G C67A | 0.00703 ± 0.003 s⁻¹ | – | 0.00288 ± 0.00088 s⁻¹ | – | 0.00689 ± 0.0015 s⁻¹ | – | 0.000425 ± 7.2e-05 s⁻¹
G51U U65G G66C | < 1e-05 s⁻¹ | – | < 1e-05 s⁻¹ | – | < 1e-05 s⁻¹ | – | –
A12U C61U | 2.71e-05 ± 7.4e-06 s⁻¹ | – | – | 3.1e-05 ± 1.2e-05 s⁻¹ | – | – | –
C50G U55G C67G | 2.81e-05 ± 6.9e-06 s⁻¹ | – | – | – | – | – | –
U55A C58G | 0.00041 ± 0.00019 s⁻¹ | – | 2.55e-05 ± 1.3e-05 s⁻¹ | 4.69e-05 ± 1.5e-05 s⁻¹ | 0.000153 ± 2.5e-05 s⁻¹ | – | –
C10A C71U | < 1e-05 s⁻¹ | – | – | – | – | – | –
U31G A36C | < 1e-05 s⁻¹ | < 1e-05 s⁻¹ | – | – | < 1e-05 s⁻¹ | – | –
U65G C71G | 0.001 ± 0.00022 s⁻¹ | 4.2e-05 ± 1e-05 s⁻¹ | 0.000145 ± 1.5e-05 s⁻¹ | 0.000413 ± 4.9e-05 s⁻¹ | 0.000734 ± 0.00013 s⁻¹ | 3670 ± 1100 µM | 2.64e-05 ± 9.6e-06 s⁻¹
C11U A64G | 0.00227 ± 0.00061 s⁻¹ | 0.0002 ± 2.5e-05 s⁻¹ | 0.000741 ± 6.4e-05 s⁻¹ | 0.00108 ± 0.00014 s⁻¹ | 0.00247 ± 0.00021 s⁻¹ | 1370 ± 580 µM | 8.94e-05 ± 9.3e-06 s⁻¹
G60A C70A | 1.05e-05 ± 2.5e-06 s⁻¹ | – | – | – | – | – | < 1e-05 s⁻¹
A14G C68A U69G | 0.000118 ± 2.9e-05 s⁻¹ | – | 0.000112 ± 2.8e-05 s⁻¹ | 9.76e-05 ± 1.8e-05 s⁻¹ | – | – | –
G35C C50G G60U | 3.38e-05 ± 1.4e-05 s⁻¹ | 5.86e-05 ± 1.9e-05 s⁻¹ | – | – | – | – | –
A33U U56G | 3.36e-05 ± 2.8e-06 s⁻¹ | – | – | – | – | 3370 ± 930 µM | –
A39C A53U | 0.00502 ± 0.0011 s⁻¹ | 0.000227 ± 3.4e-05 s⁻¹ | 0.000952 ± 0.00013 s⁻¹ | 0.00344 ± 0.00044 s⁻¹ | 0.00367 ± 0.00039 s⁻¹ | 2730 ± 760 µM | 7.74e-05 ± 7.6e-06 s⁻¹
